Where a chain is given by its changes, count along the chain named.
B1: KP2-14 Fab/phage clone (anti-Band 3, Wrb) (Fab, V domains shown)
VH: EVQLLESGPGLVKPSETLSLTCAVSGSSLSSAYGWNWIRQAPGKRLEWIGFIGGSRDNTNYNPSLRSRVTISKDTSKNHFSLKLTSVTAADTAVYFCARRGAFGNSYFDYWGQGVPVTVSS
VL: AAELTQSPATLSLSPGETATLSCRASESVGSSLAWYHQKPGQAPRLLVHSASFRATGIPDRFSGSGSRTEFTLTVSSLEPEDVGVYHCQQYNDLLPLTFGGGTKVEIK
B2: KP3-06 Fab/phage clone (anti-Band 3, Wrb) (Fab, V domains shown)
VH: EVQLLESGPGLVRPSETLSVTCDVSGGSISSASWSWIRQAPGKRLEWIGAISGSGSPTNVNPSLKSRVTLSVDTSKNQLSLKLRSMTAADTAVYYCARRGGYGNRYFDYWGQGVAVTVSS
VL: B1 VL with E27Q, H37Q, R45K, S52Y, E70D, V75I
B3: KP3-20 Fab/phage clone (anti-Band 3, Wrb) (Fab, V domains shown)
VH: EVQLLESGPGLVKPSETLSLTCAVSGYSISSGFAWNWIRQTPGKGLEWIGYIGGSRDNTNYNPSLKSRVTISKDTSKNQFSLKLTSMTAADTAMYYCARRGAYGNSYFDFWGQGVPVTVSS
VL: B1 VL with E27Q, S32N, L33V, H37Q, R45K, S52Y, F53Y, E70D, V75I
B4: KP2-23 Fab/phage clone (anti-Band 3, Wrb) (Fab, V domains shown)
VH: EVQLLESGPGLVKPSETLSLTCTVSGSSLSSAYGWNWIRQPPGKGLEWIGSIGGSRDNTNYNPSLKRRVTISKDTSKNQFSLKLKSVTAADTAVYYCAQRGAYGYSYFDYWGQGVLVAVSS
VL: ELTLTQSPATLSLSPGETATLSCRASQTVGRNLAWYQQRPGQAPNLLVHSAYFRATGIPDRFSGSGSGTDFTLTISSLEPEDAGVYHCQQYNDLLPLTFGGGTKVEIK
B5: KP3-07 Fab/phage clone (anti-Band 3, Wrb) (Fab, V domains shown)
VH: B4 VH with A118T
VL: ELVMTQSPATLSLSPGETATLSCRASQSIGSNLAWYQQKPGQAPKLLVHSANIRATGIPDRFIGSGSRTDFTLTISSLEPEDVGVYHCQQYNDFLPLTFGGGTKVEIK
B6: KP3-19 Fab/phage clone (anti-Band 3, Wrb) (Fab, V domains shown)
VH: EVQLLESGPGLVKPSETLSLTCAVSGGSLSGGYDWYWIRQSPRKGLEYIGYIYDSRGTTNYNPSLKNRVTISIDTSKNHFSLNLKSVTAADTAVYYCARRVGYGATYFDLWGQGVLVTVSS
VL: B5 VL with I29V, I53F, P59S, I63S, F94L
B7: KP2-13 Fab/phage clone (anti-Band 3, Wrb) (Fab, V domains shown)
VH: EVQLLESGPGLVKPSETLSLTCAVSGGSISGGYDWSWIRQSPGKGLEWIGYIYDSRGTTNYNPSLRKRVAISIDTSRNQFSLNLRSLTAADTAVYYCARRAGYGSAYFDYWGQGVLVTVSS
VL: AAELTQSPATLSLAPGETATLSCRASQSIGTNLAWYHQKPGQPPKLLVHTAYVRATGIPNRFSGSGSRTDFTLTINSLQPEDVGVYHCQQYNDLLPLTFGGGTKIDIK
B8: KP2-24 Fab/phage clone (anti-Band 3, Wrb) (Fab, V domains shown)
VH: EVQLLESGPGLVKPSETLSLTCTVSGYSISSGYGWGWIRQSPGKGLEWIGYFGGSRGNTNYNPSLKSRVTISQDTSKNQFSLKLKSVTAADTGIYYCARDSGYSRRWVDYWGQGVLVTVSS
VL: B7 VL with I29V, T50S, N60D
B9: KP2-22 Fab/phage clone (anti-Band 3, Wrb) (Fab, V domains shown)
VH: EVQLLESGPGLVKPSETLSLTCAVSGDSISSGYGWSWIRQTPGKGLEWIGYIGGSRGNTNYNPSLKSRVTISKDTSKNQFSLKLSSVTAADTAVYYCARRAPYWGYSYLDYWGQGVLVTVSS
VL: B7 VL with A1E, A2L, E3T, P43S, T50S, N60D, I105V, D106E
B10: KP3-12 Fab/phage clone (anti-Band 3, Wrb) (Fab, V domains shown)
VH: EVQLLESGPGLVKPSETLSLTCAVSGNSISSAYGWHWIRQVPGKGLEWIGSIGGSRGTTNYNPSLKSRGTISEDTSKNQFSLRLRSVSAADTAVYFCARDSGYSFRYFDFWGRGVLVTVSS
VL: B7 VL with T50S
B11: KP2-15 Fab/phage clone (anti-Band 3, Wrb) (Fab, V domains shown)
VH: B7 VH with A70T, N83K
VL: B4 VL with E1A, L2A, T3E, L13V, T18A, R39K, N45K, Y52H, V85I
B12: KP2-20 Fab/phage clone (anti-Band 3, Wrb) (Fab, V domains shown)
VH: B7 VH with A70T, N83K
VL: B1 VL with E27Q, S32N, H37Q, R45K, A51G, F53V, E70D, T74I, V75I
B13: KP2-17 Fab/phage clone (anti-Band 3, Wrb) (Fab, V domains shown)
VH: EVQLLESGPGLVKPSETLSLTCAVSGYSISSGYGWTWIRQPPGKGLEWIGYIGGSRGNANYNPSLKSRVTISKDTSKNQFSLKLTSVTAADTAVYYCARDGGYGERYLEFWGQGALVTVSS
VL: AAELTQSPAFRSVTLKEKVTITCQASQSIGSSLHWYQQKPDQSPKLLIKFASQSISGVPSRFSGSGYGTDFTLTINSLEAEDAATYYCHQSSSFPWTFGQGTKVEIK
B14: KP2-19 Fab/phage clone (anti-Band 3, Wrb) (Fab, V domains shown)
VH: EVQLLESGPGLVKPSETLSLTCAVSGGSINGGYDWTWIRQSPGKGLQWIGWIYGSRGTTNYNPSLRNRVTISIDTSRNQFSLRLSSLTAADTAVYYCAKRVGYGNSYFDSWGQGVLVTVSS
VL: ELTLTQSPATLSLSPGERATLSCRASQSVSSRLAWYQQKPGQAPRLLIYDASSRVTGIPDRFSGSGSGTDFTLTISSLEPEDVGVYHCQQYNDLLPLTFGGGTKVEIK
B15: KP3-09 Fab/phage clone (anti-Band 3, Wrb) (Fab, V domains shown)
VH: EVQLLESGPGLVKPSETLSLTCAVSSLSLSSGFAWSWIRQPPGEGLEWIGSIGGSRDNVNYNPSLKSRVTISKDTSKNQFSLRLRSVTAADTAVYYCVTIHGYRNWYLDHWGQGVLVTVST
VL: AAELTQSPAILSLSPGETATLSCRASQSIGTSLAWYQQKPGQAPKLLVHSAYYRATDIPERFSGSGSRTDFTLTISSLEPEDVGVYHCQQYNDLLPLTFGGGTKVEIK

Biological target: T1, Band 3 / glycophorin A (Wright b, Wrb epitope) on human red blood cells (human, UniProt P02724 20-150)
T1 construct: whole, on cells; also called Band3/GPA; AE1
T1 sequence 1: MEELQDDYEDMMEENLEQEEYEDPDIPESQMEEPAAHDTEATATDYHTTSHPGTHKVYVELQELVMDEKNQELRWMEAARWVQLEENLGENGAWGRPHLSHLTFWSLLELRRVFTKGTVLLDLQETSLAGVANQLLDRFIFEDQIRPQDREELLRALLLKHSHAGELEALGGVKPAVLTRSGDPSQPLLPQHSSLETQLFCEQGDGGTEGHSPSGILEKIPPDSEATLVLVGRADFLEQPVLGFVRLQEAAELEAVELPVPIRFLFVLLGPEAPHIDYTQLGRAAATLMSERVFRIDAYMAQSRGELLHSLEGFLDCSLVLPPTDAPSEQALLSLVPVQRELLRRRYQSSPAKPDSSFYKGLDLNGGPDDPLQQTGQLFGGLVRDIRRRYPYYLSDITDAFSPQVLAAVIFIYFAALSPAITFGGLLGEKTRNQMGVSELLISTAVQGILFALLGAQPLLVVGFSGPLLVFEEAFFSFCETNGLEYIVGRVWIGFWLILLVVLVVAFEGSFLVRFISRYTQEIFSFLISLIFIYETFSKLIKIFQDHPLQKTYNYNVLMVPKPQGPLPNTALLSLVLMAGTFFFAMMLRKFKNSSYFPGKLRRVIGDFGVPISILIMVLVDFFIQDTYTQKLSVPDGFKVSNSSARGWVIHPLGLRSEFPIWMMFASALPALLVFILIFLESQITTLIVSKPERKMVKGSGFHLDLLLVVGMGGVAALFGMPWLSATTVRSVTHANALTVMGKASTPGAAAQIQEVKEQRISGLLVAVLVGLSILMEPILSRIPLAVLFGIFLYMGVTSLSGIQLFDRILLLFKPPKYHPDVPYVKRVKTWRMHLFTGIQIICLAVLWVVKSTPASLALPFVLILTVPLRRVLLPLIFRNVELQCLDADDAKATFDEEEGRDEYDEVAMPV
T1 sequence 2: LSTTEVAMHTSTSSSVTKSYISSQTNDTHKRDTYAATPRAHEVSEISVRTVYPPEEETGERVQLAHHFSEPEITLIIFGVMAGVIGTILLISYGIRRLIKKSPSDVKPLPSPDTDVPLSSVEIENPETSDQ
Experiment: Fab/phage binding assays on human RBCs incl. rare RBC types lacking conserved antigens
Procedure: An IgG Fab/phage display library was prepared from the peripheral blood lymphocytes of a hyperimmunized macaque using homologous human V-region oligonucleotides (Siegel D L, R. M., Lee H, Blancher A., Production of large repertories of macaque mAbs to human RBCs using phage display. Transfusion, 1999. 39(S10): p. 92S, which is incorporated herein by reference). Fab/phage specific for human RBCs were isolated by panning on intact human RBCs. Monoclonal Fab/phage were grown to produce antibodies for immunoassays and their corresponding DNA was extracted for sequencing. To identify target epitopes, antibodies were screened against RBCs of known serologic phenotypes, including rare cells lacking highly conserved antigens, using standard immunohematologic techniques (Roback, J. D., Technical Manual. 2014: American Association of Blood Banks (AABB), which is incorporated herein by reference.)
Using antibody phage display, we identified non-human-primate Fab antibody fragments to antigenic determinants on human RBCs. By panning phage libraries on human RBCs, we produced a Fab/phage preparation with >10⁷ RBC-specific clones capable of agglutinating human RBCs. By performing binding assays against rare RBC types lacking highly conserved antigens and epitopes, we identified the target antigens of >30 of these clones. At least 34 clones bound the Wright b (Wrb) epitope formed by a Band 3/GPA interaction, present on the RBCs of essentially 100% of the human population. The Wrb epitope, determined by the protein sequence of Band 3, is a site of association between Band 3 with GPA, and GPA expression is simultaneously required for its presence on the membrane (Huang C H, Reid M E, Xie S S, Blumenfeld 00. Human red blood cell Wright antigens: a genetic and evolutionary perspective on glycophorin A-band 3 interaction. Blood. 1996; 87(9):3942-3947). At least 3 other clones bound to a highly-conserved epitope Rh17(Hr0) on human RhCE protein, also present on essentially 100% of the human population. Both these targets are specific for erythroid lineage (Rojewski M T, Schrezenmeier H, Flegel W A. Tissue distribution of blood group membrane proteins beyond red cells: evidence from cDNA libraries. Transfus Apher Sci.

Row | Binder | binding result
1 | B1 | binds
2 | B2 | binds
3 | B3 | binds
4 | B4 | binds
5 | B5 | binds
6 | B6 | binds
7 | B7 | binds
8 | B8 | binds
9 | B9 | binds
10 | B10 | binds
11 | B11 | binds
12 | B12 | binds
13 | B13 | binds
14 | B14 | binds
15 | B15 | binds
